Measurements taken from patent publication US20190144498A1 (Johns Hopkins, published 2019).
* marks the point of attachment. B(OH)2 = OB(O)*

Molecular target: T1, endogenous GlpG in living E. coli cells (Escherichia coli, UniProt P09391 1-276)
T1 sequence (looked up): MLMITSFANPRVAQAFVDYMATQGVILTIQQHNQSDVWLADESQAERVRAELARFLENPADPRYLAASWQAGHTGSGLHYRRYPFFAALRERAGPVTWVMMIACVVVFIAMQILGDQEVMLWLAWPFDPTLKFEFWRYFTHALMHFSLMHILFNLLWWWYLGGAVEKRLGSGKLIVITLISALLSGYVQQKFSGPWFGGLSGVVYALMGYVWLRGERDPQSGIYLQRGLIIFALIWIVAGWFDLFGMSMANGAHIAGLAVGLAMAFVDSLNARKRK
Assay: cell-based or functional assay

B1: Ac-VRMA-B(OH)2 (peptide)
peptide: Ac-VRMA-{B(OH)2}
SMILES: CSCC[C@H](NC(=O)[C@H](CCCNC(=N)N)NC(=O)[C@@H](NC(C)=O)C(C)C)C(=O)N[C@@H](C)C(=O)B(O)O
EC50 of inhibition of endogenous GlpG activity (TatA-Flag cleavage) in living E. coli cells: < 1000 nM | fold increase in potency of GlpG inhibition relative to the aldehyde (Ac-VRMA-CHO): > 100 fold | fold increase in potency of GlpG inhibition relative to the chloromethylketone (Ac-VRMA-CMK): > 400 fold
